# Residue numbers refer to the chain shown, from its start.
# B1: LM609 grafted antibody combinatorial clone 2G4 (Fab, V domains shown)
# VH: QVQLVESGGGVVQPGRSLRLSCAASGFTFSSYDMSWVRQAPGKGLEWVAKVSSGGGSTYYLDTVQGRFTISRDNSKNTLYLQMNSLRAEDTAVYYCARHNYGSFASWGQGTTVTVSS
# VL: EIVLTQSPATLSLSPGERATLSCQASQSISNHLHWYQQRPGQAPRLLIRYRSQSISGIPARFSGSGSGTDFTLTISSLEPEDFAVYYCQQSGSWPLTFGGGTKVEIK
# notes: Fab
# B2: LM609 grafted antibody combinatorial clone 6H6 (Fab, V domains shown)
# VH: B1 VH with Y101H
# VL: B1 VL
# notes: Fab
# B3: LM609 grafted antibody combinatorial clone 8F9 (Fab, V domains shown)
# VH: B1 VH with L61P, Y101H
# VL: B1 VL
# notes: Fab
# B4: LM609 grafted antibody combinatorial clone C29 (Fab, V domains shown)
# VH: B1 VH with L61P, Y101H, A105Y
# VL: B1 VL
# notes: Fab
# B5: LM609 grafted antibody combinatorial clone 6G1 (Fab, V domains shown)
# VH: B1 VH with L61P
# VL: B1 VL
# notes: Fab
# B6: LM609 grafted antibody combinatorial clone 7 (Fab, V domains shown)
# VH: B1 VH with L61P, Y101H
# VL: B1 VL with H32F, L96H
# notes: Fab
# B7: LM609 grafted antibody combinatorial clone C37 (Fab, V domains shown)
# VH: B1 VH with A105Y, S106E
# VL: B1 VL
# notes: Fab
# B8: LM609 grafted antibody combinatorial clone 6D1 (Fab, V domains shown)
# VH: B1 VH with L61P, A105Y
# VL: B1 VL
# notes: Fab
# B9: LM609 grafted antibody combinatorial clone 17 (Fab, V domains shown)
# VH: B1 VH
# VL: B1 VL with H32F, L96H
# notes: Fab
# B10: LM609 grafted antibody combinatorial clone C176 (Fab, V domains shown)
# VH: B1 VH with L61P, S106T
# VL: B1 VL with H32F, L96H
# notes: Fab
# B11: LM609 grafted antibody combinatorial clone C119 (Fab, V domains shown)
# VH: B1 VH with L61P
# VL: B1 VL with G92N, L96H
# notes: Fab
# B12: LM609 grafted antibody combinatorial clone 56 (Fab, V domains shown)
# VH: B1 VH with L61P
# VL: B1 VL with H32F, L96H
# notes: Fab
# B13: enhanced LM609 grafted antibody clone 2236-38/6H6LH (Fab, V domains shown)
# VH: B1 VH with L61P, N100L, Y101H
# VL: B1 VL with H32F
# B14: LM609 grafted antibody variant L96 (Fab, V domains shown)
# VH: B1 VH with S106Y
# VL: B1 VL
# notes: Fab
# B15: LM609 grafted antibody variant T92 (Fab, V domains shown)
# VH: B1 VH with S106Y
# VL: B1 VL with G92T, L96H
# notes: Fab
# B16: LM609 grafted antibody variant N92 (Fab, V domains shown)
# VH: B1 VH with S106Y
# VL: B1 VL with G92N, L96H
# notes: Fab
# B17: LM609 grafted antibody variant F32 (Fab, V domains shown)
# VH: B1 VH with S106Y
# VL: B1 VL with H32F, L96H
# notes: Fab
# B18: LM609 grafted antibody variant S51 (Fab, V domains shown)
# VH: B1 VH with S106Y
# VL: B1 VL with R51S, L96H
# notes: Fab
# B19: LM609 grafted antibody variant M102 (Fab, V domains shown)
# VH: B1 VH with S106M
# VL: B1 VL with L96H
# notes: Fab
# B20: LM609 grafted antibody variant L30 (Fab, V domains shown)
# VH: B1 VH with S30L, S106Y
# VL: B1 VL with L96H
# notes: Fab
# B21: LM609 grafted antibody variant T27 (Fab, V domains shown)
# VH: B1 VH with F27T, S106Y
# VL: B1 VL with L96H
# notes: Fab
# B22: LM609 grafted antibody variant K52 (Fab, V domains shown)
# VH: B1 VH with S52K, S106Y
# VL: B1 VL with L96H
# notes: Fab
# B23: LM609 grafted antibody variant Q96 (Fab, V domains shown)
# VH: B1 VH with S106Y
# VL: B1 VL with L96Q
# notes: Fab
# B24: LM609 grafted antibody variant W29 (Fab, V domains shown)
# VH: B1 VH with F29W, S106Y
# VL: B1 VL with L96H
# notes: Fab
# B25: LM609 grafted antibody variant G102 (Fab, V domains shown)
# VH: B1 VH with S106G
# VL: B1 VL with L96H
# notes: Fab
# B26: LM609 grafted antibody variant E102 (Fab, V domains shown)
# VH: B1 VH with S106E
# VL: B1 VL with L96H
# notes: Fab
# B27: LM609 grafted antibody variant A102 (Fab, V domains shown)
# VH: B1 VH with S106A
# VL: B1 VL with L96H
# notes: Fab
# B28: LM609 grafted antibody variant P60 (Fab, V domains shown)
# VH: B1 VH with L61P, S106Y
# VL: B1 VL with L96H
# notes: Fab
# Target: T1, integrin αVβ3 (human, UniProt P06756 31-1048; P05106 27-788)
# T1 construct: mature; biotinylated in capture lift and capture ELISA; also on M21 melanoma cells in some assays; also called vitronectin receptor; αVβ3 receptor
# Experiment: SPR (BIAcore)
fold slower dissociation rate [fold],fold greater association rate [fold],Binder
> 10,–,B1
> 10,–,B2
> 10,–,B3
> 10,2 to 4,B4
> 10,2 to 4,B5
> 10,–,B6
> 10,–,B7
> 10,–,B8
> 10,–,B9
> 10,–,B10
> 10,–,B11
> 10,–,B12

# Target: T1, integrin αVβ3
# Experiment: SPR (BIACORE), as in Example VI
# Experimental: The affinities of select variants were further characterized by utilizing surface plasmon resonance (BIAcore) to measure the association and dissociation rates of purified Fab with immobilized αVβ₃. […] To obtain association rate constants (kₒₙ), the binding rate at five different Fab concentrations, ranging from 5-40 μg/ml in 50 mM Tris-HCl, pH 7.4, 100 mM NaCl, 2 mM CaCl₂, and 1 mM MgCl₂, was determined at a flow rate of 10 μl/min. Dissociation rate constants (koff) were the average of five measurements obtained by analyzing the dissociation phase at an increased flow rate (40 μl/min). Sensorgrams were analyzed with the BIAevaluation 2.1 program (Pharmacia). Residual Fab was removed after each measurement with 10 mM HCl, 2 mM CaCl₂ and 1 mM MgCl₂.
row,Kd [nM],Binder
1,0.62,B2
2,0.9,B13

# Target: T1, integrin αVβ3
# Experiment: ELISA titration of Fab on immobilized αVβ3
# Experimental: For ELISA titration of Fab on immobilized αVβ₃ and the related integrins αVβ₅ and αIIbβ₃, Immulon II microtiter plates were coated with 1 μg/ml purified receptor in 20 mM Tris, pH 7.4, 150 mM NaCl, 2 mM CaCl, 1 mM MgCl₂, 1 mM MnCl₂, washed once, and blocked in 3% BSA in 50 mM Tris, pH 7.4, 100 mM NaCl, 2 mM CaCl₂, 1 mM MgCl₂ for 1 h at 25° C. […] Just prior to use, the plates were washed two times and were then incubated 1 h at 25° C. with various dilutions of Fab. […] All dilutions and washes were in 50 mM Tris-HCl, pH 7.4, 100 mM NaCl, 2 mM CaCl₂, and 1 mM MgCl₂.
row,fold enhanced binding over LM609 grafted antibody [fold],Binder
1,> 3,B14
2,> 3,B15
3,> 3,B16
4,> 3,B17
5,> 3,B18
6,> 3,B19
7,> 3,B20
8,> 3,B21
9,> 3,B22
10,> 3,B23
11,> 3,B24
12,> 3,B25
13,> 3,B26
14,> 3,B27
15,> 3,B28
